Experimental data: US20090232801A1 (ABBOT LABORATORIES, published 2009)
Numbering of substitutions follows the chain as printed. Names and notes keep the numbering of the source.

What was measured:
Aβ(1-42) globulomer [1] = molecular target: T1, Aβ(1-42) globulomer (human); assay: competition ELISA, Expt. 3: unlabelled antibody against biotinylated Mu8F5 on coated human A-beta oligomer antigen (1-42)
T1 construct: the definition mentions n=12-14 for late assembly forms; also called human A-beta oligomer antigen (1-42); Aβ(1-42) globular oligomer
Description: (§1) MaxiSorp ELISA plates (Nalge Nunc International) were coated overnight at 4° C. with 100 μl/well of 5.0 μg/ml human A-beta oligomer antigen (1-42) (Abbott Biosciences Corporation, Worcester, Mass.) in PBS, washed with Wash Buffer (PBS containing 0.1% Tween 20), and blocked for 1 hr at room temperature with 340 μl/well of SuperBlock Blocking Buffer in PBS (Pierce Chemical Company). After washing with Wash Buffer, a mixture of biotinylated Mu8F5 (1.0 μg/ml final concentration) and competitor antibody (Mu8F5 or Hu8F5 starting at 27 μg/ml final concentration and serially diluted 3-fold) in 100 μl/well of 5% Superblock Blocking Buffer in PBS was added in triplicate. As a no-competitor control, 100 μl/well of 5% Superblock Blocking Buffer in PBS was used. After incubating the plates for 2 hrs at room temperature, and washing with Wash Buffer, bound antibodies were detected using 100 μl/well of 1 μg/ml HRP-conjugated streptavidin (Pierce Chemical Company) in 5% Superblock Blocking Buffer in PBS. After incubating for 30 min at room temperature, and washing with Wash Buffer, color development was performed by adding 100 μl/well of ABTS Peroxidase Substrate/Peroxidase Solution B (KPL). […] Absorbance was read at 415 nm.
(§2) The affinity of Hu8F5 to human A-beta oligomer antigen (1-42) was analyzed by competition ELISA as described in Materials and Methods. […]

Aβ(1-42) globulomer [2] = molecular target: T1, Aβ(1-42) globulomer; assay: competition ELISA, Expt. 2: unlabelled antibody against biotinylated Mu8F5 on coated human A-beta oligomer antigen (1-42)
Description: as §1, §2

Aβ(1-42) globulomer [3] = molecular target: T1, Aβ(1-42) globulomer; assay: competition ELISA, Expt. 1: unlabelled antibody against biotinylated Mu8F5 (1.0 µg/ml) on coated human A-beta oligomer antigen (1-42)
Description: as §1, §2

Aβ(1-42) globulomer [4] = molecular target: T1, Aβ(1-42) globulomer; assay: competition ELISA, average of 3 experiments: unlabelled antibody against biotinylated Mu8F5 on coated human A-beta oligomer antigen (1-42)
Description: as §1, §2

Aβ(1-42) globulomer [5] = molecular target: T1, Aβ(1-42) globulomer; assay: competition ELISA, Expt. 1: competitor against biotinylated Mu8F5 on coated human A-beta oligomer antigen (1-42)
Description: as §1, §2

Aβ(1-42) globulomer [6] = molecular target: T1, Aβ(1-42) globulomer; assay: competition ELISA, average of 3 experiments: competitor against biotinylated Mu8F5 on coated human A-beta oligomer antigen (1-42)
Description: as §1, §2

Aβ(1-42) globulomer [7] = molecular target: T1, Aβ(1-42) globulomer; assay: competition ELISA, Expt. 3: competitor against biotinylated Mu8F5 on coated human A-beta oligomer antigen (1-42)
Description: as §1, §2

Aβ(1-42) globulomer [8] = molecular target: T1, Aβ(1-42) globulomer; assay: competition ELISA, Expt. 2: competitor against biotinylated Mu8F5 on coated human A-beta oligomer antigen (1-42)
Description: as §1, §2

Aβ(1-42) globulomer [9] = molecular target: T1, Aβ(1-42) globulomer; assay: dot blot densitometry; reference: Aβ(1-40) monomer
Description: (§3) The dot blot was developed with a development solution made from 1 tablet of NBT/BCIP (Roche) dissolved in 20 mL H₂O for 5 min. The development was stopped by intense washing of the dot blot with H₂O. Quantitative evaluation was done using a densitometric analysis (GS800 densitometer (BioRad) and software package Quantity one, Version 4.5.0 (BioRad)) of the dot-intensity. Only the dots for 10 pmol Aβ antigen were evaluated. Results for the Discrimination of Aβ Monomer Against Aβ Globulomer by Dot Blot Method: Comparison of 8F5hum8 Versus 4G8.
(§4) The humanized monoclonal antibody 8F5hum8 (0.2 μg/ml) were used for detection with an anti-human IgG coupled to alkaline phosphatase as secondary antibody and the staining reagent NBT/BCIP (Roche Diagnostics, Mannheim). The detection signal was analyzed in its intensity (reflective density=RD) via a densitometer (GS 800, Biorad, Hercules, Calif., USA) at an antigen concentration of 10 pmol. At this concentration for every Aβ-form, the measured reflective density was in the linear range of the densitometer detection.
(§5) Discrimination of anti-Aβ-antibodies of Aβ1-40 monomer and Aβ1-42 monomer. The discrimination was calculated as the ratio of detection signal of Aβ1-42 globulomer and Aβ1-42 monomer, respectively Aβ1-40 monomer.

Aβ(1-40) monomer = molecular target: T2, Aβ(1-40) monomer (human); assay: dot blot, 10 pmol antigen on nitrocellulose, 0.2 µg/ml antibody, densitometry
T2 construct: Human Aβ(1-40), Bachem H-1194, HFIP treated and dissolved in DMSO; also called Aβ40
Description: as §3, §4

Aβ(1-42) globulomer [10] = molecular target: T1, Aβ(1-42) globulomer; assay: as above
Description: as §3, §4

[11] = molecular target: T3, Aβ(1-42) monomer, HFIP pretreated (human); assay: as above
T3 construct: Human Aβ(1-42), Bachem H-1368, monomer preparation in Pluronic F68 buffer; also called Aβ42 monomer
Description: as §3, §4

Aβ(1-42) globulomer [12] = molecular target: T1, Aβ(1-42) globulomer; assay: dot blot densitometry; reference: Aβ(1-42) monomer
Description: as §3, §4, §5

T1 sequence (peptide, as listed by the source): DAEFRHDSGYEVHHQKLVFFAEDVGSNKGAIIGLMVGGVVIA
T2 sequence (peptide, as listed by the source): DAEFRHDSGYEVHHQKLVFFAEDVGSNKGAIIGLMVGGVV

B1: murine monoclonal antibody 8F5 (antibody, V domains shown)
VH: EVQLVESGGGLVQPGGSLKLSCAASGFTFSSYGMSWVRQTPDKRLELVASINSNGGSTYYPDSVKGRFTISRDNAKNTLYLQMSSLKSEDTAMYYCASGDYWGQGSTLTVSS
VL: DVVMTQTPLSLPVSLGDQASISCRSSQSLVYSNGDTYLHWYLQKPGQSPKLLIYKVSNRFSGVPDRFSGSGSGTDFTLKISRVEAEDLGVYFCSQSTHVPWTFGGGTKLEIK
notes: Mouse monoclonal antibody; also called Mu8F5; mouse 8F5 antibody
B1 gave an IC50 (Aβ(1-42) globulomer [1]) of 5.81 µg/mL, an IC50 (Aβ(1-42) globulomer [2]) of 4.87 µg/mL and an IC50 (Aβ(1-42) globulomer [3]) of 4.58 µg/mL. It also gave an IC50 (Aβ(1-42) globulomer [4]) of 5.08 µg/mL.

B2: Hu8F5v1 (humanized 8F5, heavy chain version 1) (antibody, V domains shown)
VH: EVQLVESGGGLVQPGGSLRLSCAASGFTFSSYGMSWVRQAPGKGLEWVASINSNGGSTYYPDSVKGRFTISRDNAKNTLYLQMNSLRAEDTAVYYCASGDYWGQGTLVTVSS
VL: B1 VL with V2I, T7S, S14T, L15P, D17E, Q18P, L88V, F92Y, L109V
notes: Human IgG1/kappa, expressed in 293T/17 cells from modified pVg1.D.Tt (gamma-1 changed to z, non-a allotype: D356E, L358M, EU index) and pVk; also called Hu8F5VHv1 + Hu8F5VL
B2 showed an IC50 (Aβ(1-42) globulomer [5]) of 6.28 µg/mL, an IC50 (Aβ(1-42) globulomer [6]) of 6.36 µg/mL and an IC50 (Aβ(1-42) globulomer [7]) of 5.93 µg/mL. The IC50 (Aβ(1-42) globulomer [8]) was 6.85 µg/mL.

B3: Hu8F5v2 (humanized 8F5, heavy chain version 2) (antibody, human IgG1, V domains shown)
VH: B2 VH with W47L
VL: B1 VL with V2I, T7S, S14T, L15P, D17E, Q18P, L88V, F92Y, L109V
notes: Human IgG1/kappa, as for Hu8F5v1; The heavy chain differs from version 1 by the additional mouse residue at position 47 (W47L mutation of the Hu8F5VH gene); also called Hu8F5VHv2 + Hu8F5VL
B3 gave an IC50 (Aβ(1-42) globulomer [5]) of 6.29 µg/mL, an IC50 (Aβ(1-42) globulomer [6]) of 6.99 µg/mL and an IC50 (Aβ(1-42) globulomer [7]) of 6.56 µg/mL. It also gave an IC50 (Aβ(1-42) globulomer [8]) of 8.12 µg/mL.

B4: humanized monoclonal antibody 8F5hum8 (antibody, V domains shown)
VH: B2 VH with W47L
VL: DIVMTQSPLSLPVTPGEPASISCRSSQSLVYSNGDTYLHWYLQKPGQSPKLLIYKVSNRFSGVPDRFSGSGSGTDFTLKISRVEAEDVGVYYCSQSTHVPWTFGGGTKVEIKR
notes: It was detected with anti-human IgG; also called humanized antibody 8F5; mMAb 8F5hum8
In the case of B4, the “Ratio RD Aβ(1-42) globulomer/RD Aβ(1-40) monomer” value (Aβ(1-42) globulomer [9]) is reported as 59, the “Reflective Density (RD) [10 pmol]” value (Aβ(1-40) monomer) is reported as 0.04 RD and the “Reflective Density (RD) [10 pmol]” value (Aβ(1-42) globulomer [10]) is reported as 2.2 RD. The “Reflective Density (RD) [10 pmol]” value [11] was 1.3 RD and the “Ratio RD Aβ(1-42) globulomer/RD Aβ(1-42) monomer” value (Aβ(1-42) globulomer [12]) was 1.6.
